Results on 1 substance are retold here after paper PMC11075064.

The assay has as its target KCC2 (SLC12A5), neuron-specific K+/Cl- transporter (mouse (endogenous in brain)) (UniProt Q91V14). The assay can be described thus: co-IP.
Sequence of UniProt Q91V14 (Q91V14 whole entry): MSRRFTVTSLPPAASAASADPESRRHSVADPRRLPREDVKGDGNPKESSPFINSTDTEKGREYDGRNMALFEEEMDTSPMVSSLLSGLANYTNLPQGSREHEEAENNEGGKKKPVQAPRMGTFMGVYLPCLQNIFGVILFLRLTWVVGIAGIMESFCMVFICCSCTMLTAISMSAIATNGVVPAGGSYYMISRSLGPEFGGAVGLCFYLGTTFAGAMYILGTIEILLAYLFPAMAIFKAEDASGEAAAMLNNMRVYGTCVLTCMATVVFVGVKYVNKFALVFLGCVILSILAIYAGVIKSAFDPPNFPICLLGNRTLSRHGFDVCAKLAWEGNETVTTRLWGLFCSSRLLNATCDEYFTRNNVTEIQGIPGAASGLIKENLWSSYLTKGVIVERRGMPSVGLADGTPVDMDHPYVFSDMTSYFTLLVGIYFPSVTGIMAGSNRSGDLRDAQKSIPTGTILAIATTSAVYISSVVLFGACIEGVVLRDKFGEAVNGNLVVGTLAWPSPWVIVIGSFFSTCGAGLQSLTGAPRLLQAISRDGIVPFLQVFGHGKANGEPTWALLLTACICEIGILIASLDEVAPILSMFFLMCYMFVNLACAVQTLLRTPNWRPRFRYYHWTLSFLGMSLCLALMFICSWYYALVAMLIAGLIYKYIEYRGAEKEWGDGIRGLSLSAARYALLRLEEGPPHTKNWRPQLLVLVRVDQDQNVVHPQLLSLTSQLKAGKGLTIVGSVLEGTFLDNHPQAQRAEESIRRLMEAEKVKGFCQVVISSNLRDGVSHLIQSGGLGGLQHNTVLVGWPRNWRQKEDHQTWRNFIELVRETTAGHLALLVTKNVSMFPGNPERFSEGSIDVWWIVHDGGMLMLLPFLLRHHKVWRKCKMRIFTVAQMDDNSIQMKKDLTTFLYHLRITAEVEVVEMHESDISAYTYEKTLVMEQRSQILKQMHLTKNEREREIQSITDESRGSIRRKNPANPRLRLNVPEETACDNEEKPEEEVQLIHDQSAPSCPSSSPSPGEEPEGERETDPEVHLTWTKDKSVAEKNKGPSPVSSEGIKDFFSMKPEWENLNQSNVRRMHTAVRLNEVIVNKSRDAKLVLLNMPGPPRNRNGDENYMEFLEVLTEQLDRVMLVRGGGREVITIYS

On to “catalytic subunit of protein phosphatase-1 (PP1) (from UniProt P62137 1-330) (enzyme)”, for which the ratio of PP1/KCC2 immunoreactivity in LMTK3 KO mice, percent of WT was 28.6 % of WT.
